Measurements as given in PMC8159449.

Target: T1, retinoblastoma protein (RB) (Homo sapiens, UniProt P06400 1-928)
T1 sequence: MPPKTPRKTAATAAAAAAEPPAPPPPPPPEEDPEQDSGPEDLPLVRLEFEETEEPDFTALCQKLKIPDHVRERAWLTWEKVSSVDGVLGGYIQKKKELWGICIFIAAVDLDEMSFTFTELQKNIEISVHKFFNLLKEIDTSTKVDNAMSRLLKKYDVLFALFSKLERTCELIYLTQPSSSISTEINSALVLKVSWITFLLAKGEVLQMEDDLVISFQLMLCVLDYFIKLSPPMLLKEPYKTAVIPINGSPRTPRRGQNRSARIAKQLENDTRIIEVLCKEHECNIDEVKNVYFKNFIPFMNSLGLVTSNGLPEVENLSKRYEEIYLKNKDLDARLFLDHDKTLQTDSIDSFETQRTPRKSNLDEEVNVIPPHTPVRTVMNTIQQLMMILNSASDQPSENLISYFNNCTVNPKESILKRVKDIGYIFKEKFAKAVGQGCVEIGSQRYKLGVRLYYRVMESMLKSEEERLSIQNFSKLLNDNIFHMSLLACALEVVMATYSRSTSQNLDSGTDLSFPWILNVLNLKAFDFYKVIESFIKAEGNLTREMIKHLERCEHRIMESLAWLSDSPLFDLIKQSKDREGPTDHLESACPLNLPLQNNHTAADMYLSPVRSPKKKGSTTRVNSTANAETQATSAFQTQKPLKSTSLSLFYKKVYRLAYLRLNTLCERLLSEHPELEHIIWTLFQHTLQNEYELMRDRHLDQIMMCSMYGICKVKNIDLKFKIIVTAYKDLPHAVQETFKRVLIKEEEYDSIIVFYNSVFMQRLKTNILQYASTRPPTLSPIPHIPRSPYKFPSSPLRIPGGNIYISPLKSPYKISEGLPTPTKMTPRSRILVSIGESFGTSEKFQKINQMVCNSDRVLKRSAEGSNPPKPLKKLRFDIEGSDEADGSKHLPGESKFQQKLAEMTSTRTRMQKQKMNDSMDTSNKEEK
Test: ELONA

**Q.** How did the Kd turn out when GGAGGGUGGAGGGAAGGG (structured_RNA) [18E16] was run?
**A.** The Kd was 5.1 ± 0.7 nM.
